# Results: paper PMC548347
# T1: SSB (single-strand binding protein) (Sulfolobus solfataricus, UniProt Q97W73 1-148)
# T1 sequence: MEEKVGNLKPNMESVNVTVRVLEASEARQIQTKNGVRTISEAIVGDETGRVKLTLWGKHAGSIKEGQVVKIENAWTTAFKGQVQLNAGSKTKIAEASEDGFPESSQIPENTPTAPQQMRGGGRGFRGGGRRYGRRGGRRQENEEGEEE
# B1: RGA oligonucleotide (dsDNA)
# DNA 1: GGCTGTCGACGAAGATAGAGGACTTAATCGATATC
# DNA 2: GGGATATCGATTAAGTCCTCTATCTTCGTCGACAG
# Target: T1, SSB (single-strand binding protein)
# Test: EMSA
binder,measurement,value
B1,binding result,binds
